{
  "source": "patent US20250041377A1",
  "about": "“PHARMACEUTICAL USE” (ENLITISA (SHANGHAI) PHARMACEUTICAL CO., LTD., priority 2018, published 2025)",
  "key": {"[1]": {"tested_on": "Hyp, VEGF and TGF-β1 in wound tissue", "test": "Acute wound model, ELISA of wound tissue", "type": "in vivo, C57BL/6 mice", "details": "for wound Hyp content (Mean): indicator of collagen regeneration; for TGF-β1 content (Mean): wound tissue", "from_the_text": "(§1) The model group was given same amount of normal saline. There were 8 mice in each group.\nSamples were taken at Day 4 and Day 7 post-wound infliction. The mice were sacrificed and the wound tissue taken by the same biopsy punch used to create the wound. Then 5 mm of tissue was cut off from the center of the sample and was preserved in 10% neutral buffered formalin (Nanchang Rain Dew Experimental Equipment Co., Ltd., Nanchang, Hubei Province, China), and analyzed by histological embedding (HE) in paraffin wax, sectioning and staining.\nThe rest of the samples were stored at −80° C. for further analysis. Tissue was cut into small pieces and liquid nitrogen was added to increase brittleness. 9 mL of normal saline was added to 1 g of tissue, which was then ground using a Tissuelyser (Shanghai Jingxin Industrial Development Co., Ltd., Shanghai, China) at 55 Hz for 60 seconds, followed by centrifuging at 8000 rpm for 10 minutes at 4° C.\nThe supernatant was collected, and the extracted protein was used for ELISA analysis using standard ELISA test kits and an ELISA reader (SH-1000 Hitachi, Japan). Vascular endothelial growth factor (VEGF), transforming growth factor beta 1 (TGF-β1) and hydroxyproline (Hyp) were assayed. The ELISA kits were purchased from Beijing 4A Biotech Co., Ltd. (Beijing, China)."}, "[2]": {"tested_on": "full thickness skin wound on the back", "test": "Acute wound model, remaining wound area", "type": "in vivo, C57BL/6 mice", "details": "± SD", "method": "6-8 weeks old male C57BL/6 mice were supplied by Changzhou Cvens Experimental Animal Co. Ltd (Changzhou, Jiangsu Province, China). Prior to any experiments being conducted, mice were housed under standardized conditions (at a constant temperature of 22±2° C., with alternating 12 hour periods of light and darkness), and were fed on a standard mouse diet with water, for about a week.\nGeneral anesthesia was induced using intraperitoneal 3% chloral hydrate (1 mL/10 g of body weight). The hair on the back was shaved by a baby hair shaver and depilated with cream. The skin area was wiped and sterilized with 75% alcohol twice.\nAn EMS skin biopsy punch (Electron Microscopy Sciences, P.O. Box 550, 1560 Industry Road, Hatfield, PA, USA) with a 18 mm diameter was used to make a round wound on the back. The full thickness of skin was removed and the depth of the wound reached the fascia. Wounds were left open without a suture.\nas §1\nRecombinant Human Epidermal Growth Factor (rhEGF, Shanghai Haohai Biological Technology Co. Ltd, 23/F, Shanghai, China) was purchased and prepared according to the manufacturer's instructions. The lyophilized rhEGF powder (100000 IU/vial) was dissolved in 20 mL of normal saline to make a solution with a concentration of 5000 IU/mL. The working dose of rhEGF for this experiment was 1285 IU/wound.\nFor this experiment, Compound A was also obtained from GL Biochem (Shanghai) Ltd. The peptide powders were stored at −20° C. and dissolved in saline at concentrations of 61.8 μg/mL (Compound A), and 61 μg/mL (Compound B). 50 μL of the solutions were applied onto the wound surfaces.\nWounds were dressed with gauze and transparent dresser after drug administration. Photographs were taken for each wound every other day from Day 0. Photos were scanned into a computer, and wound areas calculated using ImageJ image analysis software (National Institutes of Health, […]).\nThe unhealed wound area was expressed as a percentage of the original wound area: […]\nwhere A0 and At refer to the initial area at Day 0 and the wound area at the date of measurement (time t), respectively."}},
  "data": [
    {"molecule": "rhEGF: Recombinant Human Epidermal Growth Factor, lyophilized powder dissolved in normal saline (protein, UniProt P01133 23-1207, looked up, Pro-epidermal growth factor, Recombinant Human Epidermal Growth Factor, lyophilized powder dissolved in normal saline) Pro-epidermal growth factor: PQHWSCPEGTLAGNGNSTCVGPAPFLIFSHGNSIFRIDTEGTNYEQLVVDAGVSVIMDFHYNEKRIYWVDLERQLLQRVFLNGSRQERVCNIEKNVSGMAINWINEEVIWSNQQEGIITVTDMKGNNSHILLSALKYPANVAVDPVERFIFWSSEVAGSLYRADLDGVGVKALLETSEKITAVSLDVLDKRLFWIQYNREGSNSLICSCDYDGGSVHISKHPTQHNLFAMSLFGDRIFYSTWKMKTIWIANKHTGKDMVRINLHSSFVPLGELKVVHPLAQPKAEDDTWEPEQKLCKLRKGNCSSTVCGQDLQSHLCMCAEGYALSRDRKYCEDVNECAFWNHGCTLGCKNTPGSYYCTCPVGFVLLPDGKRCHQLVSCPRNVSECSHDCVLTSEGPLCFCPEGSVLERDGKTCSGCSSPDNGGCSQLCVPLSPVSWECDCFPGYDLQLDEKSCAASGPQPFLLFANSQDIRHMHFDGTDYGTLLSQQMGMVYALDHDPVENKIYFAHTALKWIERANMDGSQRERLIEEGVDVPEGLAVDWIGRRFYWTDRGKSLIGRSDLNGKRSKIITKENISQPRGIAVHPMAKRLFWTDTGINPRIESSSLQGLGRLVIASSDLIWPSGITIDFLTDKLYWCDAKQSVIEMANLDGSKRRRLTQNDVGHPFAVAVFEDYVWFSDWAMPSVMRVNKRTGKDRVRLQGSMLKPSSLVVVHPLAKPGADPCLYQNGGCEHICKKRLGTAWCSCREGFMKASDGKTCLALDGHQLLAGGEVDLKNQVTPLDILSKTRVSEDNITESQHMLVAEIMVSDQDDCAPVGCSMYARCISEGEDATCQCLKGFAGDGKLCSDIDECEMGVPVCPPASSKCINTEGGYVCRCSEGYQGDGIHCLDIDECQLGEHSCGENASCTNTEGGYTCMCAGRLSEPGLICPDSTPPPHLREDDHHYSVRNSDSECPLSHDGYCLHDGVCMYIEALDKYACNCVVGYIGERCQYRDLKWWELRHAGHGQQQKVIVVAVCVVVLVMLLLLSLWGAHYYRTQKLLSKNPKNPYEESSRDVRSRRPADTEDGMSSCPQPWFVVIKEHQDLKNGGQPVAGEDGQAADGSMQPTSWRQEPQLCGMGTEQGCWIPVSSDKGSCPQVMERSFHMPSYGTQTLEGGVEKPHSLLSANPLWQQRALDPPHQMELTQ", "values": [
      {"measurement": "wound Hyp content (Mean)", "setting": "[1]; Day 4", "result": 1.808, "unit": "µg/mg"},
      {"measurement": "TGF-β1 content (Mean)", "setting": "[1]; Day 4", "result": 18190.6, "unit": "pg/g"},
      {"measurement": "wound Hyp content (Mean)", "setting": "[1]; Day 7", "result": 2.679, "unit": "µg/mg"},
      {"measurement": "TGF-β1 content (Mean)", "setting": "[1]; Day 7", "result": 15443.1, "unit": "pg/g"},
      {"measurement": "ratio of remaining wound area of initial wound", "setting": "[2]; Day 0, topical 50 μL/wound once daily, rhEGF 1285 IU/mouse, Compound A 3.09 μg/mouse, Compound B 3.05 μg/mouse", "result": "82.0 ± 2.2", "unit": "%"},
      {"measurement": "ratio of remaining wound area of initial wound", "setting": "[2]; Day 1, topical once daily", "result": "100 ± 9.9", "unit": "%"},
      {"measurement": "ratio of remaining wound area of initial wound", "setting": "[2]; Day 2, topical once daily", "result": "94.1 ± 4.3", "unit": "%"},
      {"measurement": "ratio of remaining wound area of initial wound", "setting": "[2]; Day 3, topical once daily", "result": "78.6 ± 7.3", "unit": "%"},
      {"measurement": "ratio of remaining wound area of initial wound", "setting": "[2]; Day 4, topical once daily", "result": "61.5 ± 3.3", "unit": "%"},
      {"measurement": "ratio of remaining wound area of initial wound", "setting": "[2]; Day 5, topical once daily", "result": "53.0 ± 1.0", "unit": "%"},
      {"measurement": "ratio of remaining wound area of initial wound", "setting": "[2]; Day 6, topical once daily", "result": "47.2 ± 5.8", "unit": "%"}
    ]}
  ]
}
